Test results taken from patent publication US20250042994A1.

Columns and labels:
[1] = biological target: human CD19 on the surface of cells (human) (UniProt P15391); assay: FACS on CHO-K1-human CD19-2G4
[2] = biological target: human CD19 on the surface of cells (human) (UniProt P15391); assay: FACS on Raji cells
[3] = biological target: human CD19 on the surface of cells (human) (UniProt P15391); assay: FACS on CHO-K1-human CD19-2C8
[4] = biological target: monkey CD19 on cells (monkey); assay: FACS on HEK293T-monkey CD19
[5] = biological target: human CD19 on the surface of cells (human) (UniProt P15391); assay: FACS on CHO-K1-human CD19-1C9
[6] = biological target: human CD19 on the surface of cells (human) (UniProt P15391); assay: FACS on CHO-K1-human CD19-1C4
[7] = biological target: Human CD19-his protein (human) (UniProt P15391); assay: ELISA, antibody at 0.01 nM
[8] = biological target: Human CD19-his protein (human) (UniProt P15391); assay: ELISA, antibody at 0.10 nM
[9] = biological target: Human CD19-his protein (human) (UniProt P15391); assay: ELISA, antibody at 1.00 nM
[10] = biological target: human CD19 on Raji cells (human) (UniProt P15391); assay: FACS on Raji cells
[11] = biological target: monkey CD19 on HEK293T-monkey CD19 cells (monkey); assay: FACS on HEK293T-monkey CD19 cells
[12] = biological target: cynomolgus monkey CD19 on peripheral blood B cells (cynomolgus monkey (Macaca fascicularis)); assay: FACS, cynomolgus PBMC, CD20+ B cells
[13] = biological target: human CD19 on CHO-K1-human CD19 cells (human) (UniProt P15391); assay: FACS on CHO-K1-human CD19 cells
[14] = biological target: Human CD19-his protein (human) (UniProt P15391); assay: ELISA, antibody at 0.0001 nM
[15] = biological target: Human CD19-his protein (human) (UniProt P15391); assay: ELISA, antibody at 100 nM
[16] = biological target: Human CD19-his protein (human) (UniProt P15391); assay: ELISA, antibody at 0.001 nM
[17] = biological target: Human CD19-his protein (human) (UniProt P15391); assay: ELISA, antibody at 10 nM
[18] = biological target: Human CD19-his protein (human) (UniProt P15391); assay: ELISA, coated human CD19-His

human CD19 on the surface of cells (human), sequence (P15391 20-556): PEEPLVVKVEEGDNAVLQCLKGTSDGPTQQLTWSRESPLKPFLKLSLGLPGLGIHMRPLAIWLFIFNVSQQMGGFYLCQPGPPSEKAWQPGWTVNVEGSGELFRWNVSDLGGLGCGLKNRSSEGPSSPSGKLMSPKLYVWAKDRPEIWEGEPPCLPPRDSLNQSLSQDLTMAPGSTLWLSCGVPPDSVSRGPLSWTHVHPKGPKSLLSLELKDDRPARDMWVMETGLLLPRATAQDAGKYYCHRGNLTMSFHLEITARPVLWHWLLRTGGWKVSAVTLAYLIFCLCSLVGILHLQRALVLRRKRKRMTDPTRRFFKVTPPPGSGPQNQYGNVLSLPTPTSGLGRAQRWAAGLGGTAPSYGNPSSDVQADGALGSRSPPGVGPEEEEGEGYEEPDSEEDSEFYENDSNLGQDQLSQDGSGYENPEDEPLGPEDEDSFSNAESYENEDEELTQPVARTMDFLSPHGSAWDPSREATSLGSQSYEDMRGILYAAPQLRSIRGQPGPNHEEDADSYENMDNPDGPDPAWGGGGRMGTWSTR
Human CD19-his protein (human), sequence (P15391 20-291 limits assumed): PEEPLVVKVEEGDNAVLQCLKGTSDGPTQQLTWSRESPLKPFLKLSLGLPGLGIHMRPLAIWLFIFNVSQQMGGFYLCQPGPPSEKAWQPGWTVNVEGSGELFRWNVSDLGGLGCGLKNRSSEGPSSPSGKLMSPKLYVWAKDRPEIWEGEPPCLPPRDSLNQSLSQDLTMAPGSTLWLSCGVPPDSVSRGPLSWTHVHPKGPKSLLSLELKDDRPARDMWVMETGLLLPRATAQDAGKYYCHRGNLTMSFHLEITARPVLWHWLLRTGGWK
human CD19 on CHO-K1-human CD19 cells (human), sequence (P15391 20-556): as the sequence (P15391 20-556) above
human CD19 on Raji cells (human), sequence (P15391 20-556): as above

Substance: IgG subtype control (antibody)
- mean fluorescence intensity [1]: 50
- mean fluorescence intensity [2]: 72
- mean fluorescence intensity [3]: 50
- mean fluorescence intensity [4]: 62
- mean fluorescence intensity [5]: 50
- mean fluorescence intensity [6]: 50

Substance: anti-hel-hIgG1 (antibody)
- OD450 [7]: 0.05
- OD450 [8]: 0.05
- OD450 [9]: 0.05
- Maximum mean fluorescence intensity [10]: 435
- Maximum mean fluorescence intensity [11]: 90
- Proportion of chimeric antibody positive cells to B cells (%) at 1 nM [12]: 1%
- Proportion of chimeric antibody positive cells to B cells (%) at 10 nM [12]: 1%
- Proportion of chimeric antibody positive cells to B cells (%) at 100 nM [12]: 1%
- Maximum mean fluorescence intensity [13]: 99
- OD450 [14]: 0.04
- OD450 [15]: 0.08
- OD450 [16]: 0.05
- OD450 [17]: 0.05

Substance: anti-hel-mIgG1 (antibody)
- Maximum mean fluorescence intensity [10]: 651 MFI
- Maximum mean fluorescence intensity [13]: 82 MFI
- OD450 at 0.0001 nM [18]: 0.09 OD450
- OD450 at 0.001 nM [18]: 0.08 OD450
- OD450 at 0.01 nM [18]: 0.08 OD450
- OD450 at 0.10 nM [18]: 0.08 OD450
- OD450 at 1.00 nM [18]: 0.08 OD450
- OD450 at 100 nM [18]: 0.17 OD450
